Reference: IntAct's records for PubMed 26918958

B1: Latent-transforming growth factor beta-binding protein 4 (Homo sapiens), Q8N2S1-1 (parent)
chain: MPRPGTSGRRPLLLVLLLPLFAAATSAASPSPSPSQVVEVPGVPSRPASVAVCRCCPGQTSRRSRCIRAFCRVRSCQPKKCAGPQRCLNPVPAVPSPSPSVRKRQVSLNWQPLTLQEARALLKRRRPRGPGGRGLLRRRPPQRAPAGKAPVLCPLICHNGGVCVKPDRCLCPPDFAGKFCQLHSSGARPPAPAVPGLTRSVYTMPLANHRDDEHGVASMVSVHVEHPQEASVVVHQVERVSGPWEEADAEAVARAEAAARAEAAAPYTVLAQSAPREDGYSDASGFGYCFRELRGGECASPLPGLRTQEVCCRGAGLAWGVHDCQLCSERLGNSERVSAPDGPCPTGFERVNGSCEDVDECATGGRCQHGECANTRGGYTCVCPDGFLLDSSRSSCISQHVISEAKGPCFRVLRDGGCSLPILRNITKQICCCSRVGKAWGRGCQLCPPFGSEGFREICPAGPGYHYSASDLRYNTRPLGQEPPRVSLSQPRTLPATSRPSAGFLPTHRLEPRPEPRPDPRPGPELPLPSIPAWTGPEIPESGPSSGMCQRNPQVCGPGRCISRPSGYTCACDSGFRLSPQGTRCIDVDECRRVPPPCAPGRCENSPGSFRCVCGPGFRAGPRAAECLDVDECHRVPPPCDLGRCENTPGSFLCVCPAGYQAAPHGASCQDVDECTQSPGLCGRGACKNLPGSFRCVCPAGFRGSACEEDVDECAQEPPPCGPGRCDNTAGSFHCACPAGFRSRGPGAPCQDVDECARSPPPCTYGRCENTEGSFQCVCPMGFQPNTAGSECEDVDECENHLACPGQECVNSPGSFQCRTCPSGHHLHRGRCTDVDECSSGAPPCGPHGHCTNTEGSFRCSCAPGYRAPSGRPGPCADVNECLEGDFCFPHGECLNTDGSFACTCAPGYRPGPRGASCLDVDECSEEDLCQSGICTNTDGSFECICPPGHRAGPDLASCLDVDECRERGPALCGSQRCENSPGSYRCVRDCDPGYHAGPEGTCDDVDECQEYGPEICGAQRCENTPGSYRCTPACDPGYQPTPGGGCQDVDECRNRSFCGAHAVCQNLPGSFQCLCDQGYEGARDGRHCVDVNECETLQGVCGAALCENVEGSFLCVCPNSPEEFDPMTGRCVPPRTSAGTFPGSQPQAPASPVLPARPPPPPLPRRPSTPRQGPVGSGRRECYFDTAAPDACDNILARNVTWQECCCTVGEGWGSGCRIQQCPGTETAEYQSLCPHGRGYLAPSGDLSLRRDVDECQLFRDQVCKSGVCVNTAPGYSCYCSNGYYYHTQRLECIDNDECADEEPACEGGRCVNTVGSYHCTCEPPLVLDGSQRRCVSNESQSLDDNLGVCWQEVGADLVCSHPRLDRQATYTECCCLYGEAWGMDCALCPAQDSDDFEALCNVLRPPAYSPPRPGGFGLPYEYGPDLGPPYQGLPYGPELYPPPALPYDPYPPPPGPFARREAPYGAPRFDMPDFEDDGGPYGESEAPAPPGPGTRWPYRSRDTRRSFPEPEEPPEGGSYAGSLAEPYEELEAEECGILDGCTNGRCVRVPEGFTCRCFDGYRLDMTRMACVDINECDEAEAASPLCVNARCLNTDGSFRCICRPGFAPTHQPHHCAPARPRA

Variants of: B1
Conditions: with tgfb1_human TGFB1, P01137
Sequence of tgfb1_human TGFB1, P01137 (P01137 whole entry): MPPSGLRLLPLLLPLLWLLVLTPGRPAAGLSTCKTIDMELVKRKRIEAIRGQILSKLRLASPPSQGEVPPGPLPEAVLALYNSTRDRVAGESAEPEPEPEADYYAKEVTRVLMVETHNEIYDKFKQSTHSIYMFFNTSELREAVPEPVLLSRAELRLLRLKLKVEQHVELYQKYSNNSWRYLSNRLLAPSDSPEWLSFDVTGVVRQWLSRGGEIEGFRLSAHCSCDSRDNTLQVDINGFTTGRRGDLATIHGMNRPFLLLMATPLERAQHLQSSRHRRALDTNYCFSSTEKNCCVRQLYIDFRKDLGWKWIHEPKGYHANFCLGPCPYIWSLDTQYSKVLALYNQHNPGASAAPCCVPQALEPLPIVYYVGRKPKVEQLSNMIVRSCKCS

effect of a mutation on the interaction	Variant
with no effect	T1141M
with no effect	V194I;T787A;T820A;T1141M
